1 molecule from patent US20220088131A1, “COMPOSITIONS AND METHODS RELATING TO C5L2” (King's College London, priority 2013, published 2022) can be followed below.

The test system of the assay is natural regulatory T cells (nTregs). Kind of assay: nTreg suppression assay (CFSE dilution). It is filed as cell-based, human. Particulars: nTregs pre-incubated with 7 μM dRA for 8 hr; 1:1 co-culture; FIG. 14. The method, then:
FIG. 14. C5L2 blockage decreases suppressive activity of natural regulatory T cells (nTregs). nTregs and effector T cells from a freshly drawn human blood sample were separated by cell sorting (CD4^+CD25^hiCD127^lo Treg cells; CD4^+CD25^loCD127^hi effector T cells). nTreg cells were incubated in media containing 7 μM of the C5ar/C5L2 double antagonist (dRA) for 8 hr. Cells were then washed twice to remove the dRA and used for a suppression assay via CSFE dilution measurement in 1:1 co-culture and percentage of suppression calculated. Shown are the mean values of two separately performed experiments.
nTregs were isolated essentially as described in Yates, J., et al., Int Immunol. (2007) 19(6):785-99. […]
Principle • Label target cells (T effectors (Teff) usually) with 1 μM CFSE as described • Activate cells with and without Tregs in serial dilution (constant Teff numbers) • CFSE will be evenly split among daughter cells, so peaks on flow will correspond to each round of division (halving of CFSE) • The percentage of dividing precursors can be calculated this way. • In the presence of Tregs, the suppression of division can be estimated. […]
• 1. […] Acquire FL1 fluorescence of each well on day 4 and calculate suppression of CFSE dilution by Tregs (different methods exist for this) * If there is inadequate CFSE labelling, pulse with ^3H-Thymidine on day 5 instead, as a readout for suppression. […]

B1: A8delta71-73: Dual C5aR/C5L2 receptor antagonist; C5a variant A8 (C27A, H67F, D69R, M70S, Q71L, G73R, Arg74 deleted) lacking amino acids 71-73 (protein)
chain: TLQKKIEEIAAKYKHSVVKKCCYDGAAVNNDETCEQRAARISLGPRCIKAFTECCVVASQLRANISFKRS
Regarding B1, the “suppressor function of nTregs” value was “markedly reduced”.
